Residue numbers refer to the chain shown, from its start. In names and notes the source's numbering stands.
How the values were obtained:
[1] = target: T1, hu-M-IL1RAP construct, positions S21-T367 (extracellular domain of the membrane form of human IL1RAP) (human, UniProt Q9NPH3 21-367); assay: SPR, Fab analyte, 37 C
T1 construct: Biotinylated when captured on the Biacore chip
T1 sequence: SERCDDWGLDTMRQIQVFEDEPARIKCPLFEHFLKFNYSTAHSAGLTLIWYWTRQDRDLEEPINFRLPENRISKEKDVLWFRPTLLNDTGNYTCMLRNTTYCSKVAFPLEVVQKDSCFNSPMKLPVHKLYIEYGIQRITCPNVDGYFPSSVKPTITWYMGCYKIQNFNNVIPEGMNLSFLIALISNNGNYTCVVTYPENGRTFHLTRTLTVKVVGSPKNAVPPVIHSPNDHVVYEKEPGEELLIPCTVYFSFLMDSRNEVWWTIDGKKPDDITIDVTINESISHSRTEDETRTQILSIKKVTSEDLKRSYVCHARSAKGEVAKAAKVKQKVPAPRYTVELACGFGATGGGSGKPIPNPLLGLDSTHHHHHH
Protocol: Surface plasmon resonance (SPR) analysis was used to determine binding affinity for hu-M-IL1RAP of the purified Fabs containing the selected single, double, and triple mutations in either the VL or VH regions using a BIACORE™ 8K instrument. […] For kinetics measurements, 5 nM biotinylated hu-M-IL1RAP was captured at 10 μL/min to achieve ˜50 response units in the second flow cell (FC2). FC1 was kept as a reference. […] The sensorgrams were recorded and subjected to reference and buffer subtraction before data analysis with the BIACORE® 8K Evaluation Software (version 1.1.1.7442). Association rates (kₒₙ) and dissociation rates (koff) were calculated using a simple one-to-one Langmuir binding model. The equilibrium dissociation constant (KD) was calculated as the ratio of koff/kₒₙ.

[2] = target: T1, hu-M-IL1RAP construct, positions …; assay: SPR, Fab analyte, 25 C
[3] = target: T1, hu-M-IL1RAP construct, positions …; assay: SPR, Fab against parent Fab
[4] = target: T1, hu-M-IL1RAP construct, positions …; assay: phage display selection of affinity maturation libraries + NGS; enrichment of the mutation R96D (VH)
Protocol: (§1) For the first panning round, plates and phage libraries were blocked in PBS buffer containing 0.05% TWEEN® 20 and 1% BSA for either 1 hour (plates) or 30 minutes (phage libraries). Plates were washed in Wash Buffer (PBS buffer containing 0.05% TWEEN® 20) and incubated with blocked phage libraries for 2 hours with shaking. Non-specifically bound phage was removed by washing vigorously with Wash Buffer. […] Non-specific interactions were inhibited by adding 1/10th v/v 1% BSA.
(§2) For panning rounds three through five, phage libraries were incubated with blocking buffer (PBS buffer with 1% BSA in round 3 and SUPERBLOCK™ PBS buffer (Pierce) and 0.05% TWEEN® 20 in rounds 4 and 5) for 30 minutes and then incubated with decreasing concentrations of biotinylated hu-M-IL1RAP for 1 hour. Hu-M-IL1RAP-bound phage were captured on blocked neutravidin-coated plates, washed extensively with Wash Buffer, and eluted and neutralized in the same manner as in rounds 1 and 2. In the final selection round, 1000× non-biotinylated hu-M-IL1RAP was added as a competitor to increase the selection stringency.
(§3) To extract sequences from affinity maturation libraries using NGS, phagemid double stranded DNA was isolated from E. coli XL-1 cells carrying phagemids from the initial phage library (unsorted libraries) and from the second and third rounds of solution selection (sorted libraries). […]

[5] = target: T1, hu-M-IL1RAP construct, positions …; assay: phage display selection of affinity maturation libraries + NGS; enrichment of the mutation F29Q (VH)
Protocol: as §1, §2, §3

[6] = target: T1, hu-M-IL1RAP construct, positions …; assay: phage display selection of affinity maturation libraries + NGS; enrichment of the mutation V51S (VH)
Protocol: as §1, §2, §3

[7] = target: T1, hu-M-IL1RAP construct, positions …; assay: phage display selection of affinity maturation libraries + NGS; enrichment of the mutation R96Q (VH)
Protocol: as §1, §2, §3

B1: H2 Fab (VH R96D) (Fab, V domains shown)
VH: EVQLVESGGGLVQPGGSLRLSCAASGFTFSNYAMSWVRQAPGKGLEWVATVTEGGDYNYYLDDVKGRFTISRDNAKNSLYLQMNSLRAEDTAVYYCARDDWPYFFDYWGQGTLVTVSS
VL: DIQMTQSPSSLSASVGDRVTITCRASENIYSNLAWYQQKPGKSPKLLVYGAKNLADGVPSRFSGSGSGTDYTLTISSLQPEDFATYYCQHFWTTPRTFGGGTKVEIK
notes: Fab with 8xHis tag
Kd [1]: 0.112 nM | koff [1]: 0.000729 s⁻¹ | kon [1]: 6.5e+06 M⁻¹ s⁻¹ | Kd [2]: 0.0422 nM | koff [2]: 0.000219 s⁻¹ | kon [2]: 5.19e+06 M⁻¹ s⁻¹ | Fold Improvement in KD @ 25° C. [3]: 7.99 fold | Fold Improvement in KD @ 37° C. [3]: 2.39 fold | Enrichment ratio (at the highest selection stringency) [4]: 4.06 ratio

B2: H4 Fab (VH F29Q) (Fab, V domains shown)
VH: B1 VH with F29Q, D100R
VL: B1 VL
notes: Fab with 8xHis tag
Enrichment ratio (at the highest selection stringency) [5]: 3.02 ratio | Kd [2]: 0.0421 nM | koff [2]: 0.000231 s⁻¹ | kon [2]: 5.49e+06 M⁻¹ s⁻¹ | Fold Improvement in KD @ 25° C. [3]: 8 fold

B3: H3 Fab (VH V51S) (Fab, V domains shown)
VH: B1 VH with V51S, D100R
VL: B1 VL
notes: Fab with 8xHis tag
Kd [1]: 0.125 nM | koff [1]: 0.000602 s⁻¹ | kon [1]: 4.82e+06 M⁻¹ s⁻¹ | Enrichment ratio (at the highest selection stringency) [6]: 3.42 ratio | Kd [2]: 0.0396 nM | koff [2]: 0.000208 s⁻¹ | kon [2]: 5.26e+06 M⁻¹ s⁻¹ | Fold Improvement in KD @ 25° C. [3]: 8.51 fold | Fold Improvement in KD @ 37° C. [3]: 2.14 fold

B4: H6 Fab (VH R96Q) (Fab, V domains shown)
VH: B1 VH with D100Q
VL: B1 VL
notes: Fab with 8xHis tag
Enrichment ratio (at the highest selection stringency) [7]: 3.8 ratio | Kd [1]: 0.188 nM | koff [1]: 0.000708 s⁻¹ | kon [1]: 3.76e+06 M⁻¹ s⁻¹ | Kd [2]: 0.0468 nM | koff [2]: 0.00025 s⁻¹ | kon [2]: 5.34e+06 M⁻¹ s⁻¹ | Fold Improvement in KD @ 25° C. [3]: 7.2 fold | Fold Improvement in KD @ 37° C. [3]: 1.43 fold

— patent US20260015426A1 (23ANDME, published 2026)
